{
  "source": "patent US20230074436A1",
  "about": "(DENALI THERAPEUTICS, published 2023)",
  "binders": {"B1": {"name": "20H4 (antibody, rat IgG2b, V domains shown)", "VH": "AVQLVESGGGLVQPKESLKISCAASGFTFSNAAMYWVRQAPGKGLELLARIRTKPNNYATYHADSVKGRFTISRDDSQSMVYLHMGNLKTEDTAMYYCTADMATGDYWGPGVMVTVSS", "VL": "DIQMTQSPPVLSVSVGDRVTLSCKASQNINKNLDWYQQKHGEAPKPLIYSTNNLQTGVPSRFSGSGSGTDYTLTISSLQPEDVATYYCYQYKSAWTFGGGTKLELR", "notes": "also called clone 20H4; rat 20H4"}},
  "key": {"[1]": {"target": "T1, asyn_113-127_119A (human)", "T1 construct": "substitution is already in the entry; also called pep8", "T1 peptide": "Biotin-LEDMPVAPDNEAYEM", "assay": "Ala-scan peptide ELISA, row F, run 1", "protocol": "(§1) 96-well Nunc plates were coated with 50 μL per well of 1 μg/mL streptavidin (from Jackson Immuno Research Laboratory) in PBS at 4° C. overnight. The plates were washed three times with PBST, and blocked with PBS containing 3% BSA at room temperature for 1 hour. The N-terminal biotinylated peptides were dissolved in Milli Q water to a concentration of 2 mg/mL, then further diluted to a concentration of 2 μg/mL with PBS. 50 μl of the diluted peptide was applied to the streptavidin-coated plates and incubated at 4° C. overnight. 2 μg/mL of biotinylated human alpha-synuclein was used as the positive control. The plates were washed three times with PBST before use. Purified antibody was diluted by serial dilution methods, from 20 μg/mL to 1 ng/mL, and 50 μL of the antibody solution was added to the peptide-coated wells. The plates were incubated for 1 hour at room temperature, then washed three times with PBST. Secondary detection antibody (goat anti-rat HRP (obtained from Southern Biotech)) was added with 1:5,000 dilutions and incubated for 1 hour at room temperature, then washed three times with PBST. Plates were developed with 50 μL/well of TMB substrate (Thermo Fisher) and quenched with 50 μL/well of 1 N sulfuric acid. The signal was quantified on a BioTek® plate reader at A450. A parallel repeat was performed for each peptide in a separate plate."}, "[2]": {"target": "T2, asyn_113-127_124G (human)", "T2 construct": "substitution is already in the entry; also called pep13", "T2 peptide": "Biotin-LEDMPVDPDNEGYEM", "assay": "Ala-scan peptide ELISA, row F, run 1", "protocol": "as §1"}, "[3]": {"target": "T3, asyn_113-127_124P (human)", "T3 construct": "substitution is already in the entry; also called pep14", "T3 peptide": "Biotin-LEDMPVDPDNEPYEM", "assay": "Ala-scan peptide ELISA, row F, run 1", "protocol": "as §1"}, "[4]": {"target": "T4, asyn_113-127 (human)", "T4 construct": "also called pep1", "T4 peptide": "Biotin-LEDMPVDPDNEAYEM", "assay": "Ala-scan peptide ELISA, row F, run 1", "protocol": "as §1"}, "[5]": {"target": "T5, asyn_113-127_121A (human)", "T5 construct": "substitution is already in the entry; also called pep10", "T5 peptide": "Biotin-LEDMPVDPANEAYEM", "assay": "Ala-scan peptide ELISA, row F, run 1", "protocol": "as §1"}, "[6]": {"target": "T6, asyn_113-127_118A (human)", "T6 construct": "substitution is already in the entry; also called pep7", "T6 peptide": "Biotin-LEDMPADPDNEAYEM", "assay": "Ala-scan peptide ELISA, row F, run 1", "protocol": "as §1"}, "[7]": {"target": "T7, asyn_113-127_117A (human)", "T7 construct": "substitution is already in the entry; also called pep6", "T7 peptide": "Biotin-LEDMAVDPDNEAYEM", "assay": "Ala-scan peptide ELISA, row F, run 1", "protocol": "as §1"}, "[8]": {"target": "T8, asyn_113-127_122A (human)", "T8 construct": "substitution is already in the entry; also called pep11", "T8 peptide": "Biotin-LEDMPVDPDAEAYEM", "assay": "Ala-scan peptide ELISA, row F, run 1", "protocol": "as §1"}, "[9]": {"target": "T9, biotinylated human alpha-synuclein (human, UniProt P37840 1-140)", "assay": "Ala-scan peptide ELISA, row F, run 1", "protocol": "as §1"}, "[10]": {"target": "T10, asyn_113-127_116A (human)", "T10 construct": "substitution is already in the entry; also called pep5", "T10 peptide": "Biotin-LEDAPVDPDNEAYEM", "assay": "Ala-scan peptide ELISA, row F, run 1", "protocol": "as §1"}, "[11]": {"target": "T11, asyn_113-127_113A (human)", "T11 construct": "substitution is already in the entry; also called pep2", "T11 peptide": "Biotin-AEDMPVDPDNEAYEM", "assay": "Ala-scan peptide ELISA, row F, run 1", "protocol": "as §1"}, "[12]": {"target": "T12, asyn_113-127_114A (human)", "T12 construct": "substitution is already in the entry; also called pep3", "T12 peptide": "Biotin-LADMPVDPDNEAYEM", "assay": "Ala-scan peptide ELISA, row F, run 1", "protocol": "as §1"}, "[13]": {"target": "T13, asyn_113-127_123A (human)", "T13 construct": "substitution is already in the entry; also called pep12", "T13 peptide": "Biotin-LEDMPVDPDNAAYEM", "assay": "Ala-scan peptide ELISA, row F, run 1", "protocol": "as §1"}, "[14]": {"target": "T14, asyn_113-127_126A (human)", "T14 construct": "substitution is already in the entry; also called pep16", "T14 peptide": "Biotin-LEDMPVDPDNEAYAM", "assay": "Ala-scan peptide ELISA, row F, run 1", "protocol": "as §1"}, "[15]": {"target": "T15, asyn_113-127_120A (human)", "T15 construct": "substitution is already in the entry; also called pep9", "T15 peptide": "Biotin-LEDMPVDADNEAYEM", "assay": "Ala-scan peptide ELISA, row F, run 1", "protocol": "as §1"}, "[16]": {"target": "T16, asyn_113-127_125A (human)", "T16 construct": "substitution is already in the entry; also called pep15", "T16 peptide": "Biotin-LEDMPVDPDNEAAEM", "assay": "Ala-scan peptide ELISA, row F, run 1", "protocol": "as §1"}, "[17]": {"target": "T17, asyn_113-127_115A (human)", "T17 construct": "substitution is already in the entry; also called pep4", "T17 peptide": "Biotin-LEAMPVDPDNEAYEM", "assay": "Ala-scan peptide ELISA, row F, run 1", "protocol": "as §1"}, "[18]": {"target": "T18, asyn_113-127_127A (human)", "T18 construct": "substitution is already in the entry; also called pep17", "T18 peptide": "Biotin-LEDMPVDPDNEAYEA", "assay": "Ala-scan peptide ELISA, row F, run 1", "protocol": "as §1"}, "[19]": {"target": "T1, asyn_113-127_119A", "assay": "Ala-scan peptide ELISA, row A, run 2; further: test concentration or dose not given here"}, "[20]": {"target": "T2, asyn_113-127_124G", "assay": "Ala-scan peptide ELISA, row A, run 2", "protocol": "as §1"}, "[21]": {"target": "T3, asyn_113-127_124P", "assay": "Ala-scan peptide ELISA, row A, run 2", "protocol": "as §1"}, "[22]": {"target": "T4, asyn_113-127", "assay": "Ala-scan peptide ELISA, row A, run 2", "protocol": "as §1"}, "[23]": {"target": "T5, asyn_113-127_121A", "assay": "Ala-scan peptide ELISA, row A, run 2", "protocol": "as §1"}, "[24]": {"target": "T6, asyn_113-127_118A", "assay": "Ala-scan peptide ELISA, row A, run 2", "protocol": "as §1"}, "[25]": {"target": "T8, asyn_113-127_122A", "assay": "Ala-scan peptide ELISA, row A, run 2", "protocol": "as §1"}, "[26]": {"target": "T9, biotinylated human alpha-synuclein", "assay": "Ala-scan peptide ELISA, row A, run 2", "protocol": "as §1"}, "[27]": {"target": "T10, asyn_113-127_116A", "assay": "Ala-scan peptide ELISA, row A, run 2", "protocol": "as §1"}, "[28]": {"target": "T12, asyn_113-127_114A", "assay": "Ala-scan peptide ELISA, row A, run 2", "protocol": "as §1"}, "[29]": {"target": "T13, asyn_113-127_123A", "assay": "Ala-scan peptide ELISA, row A, run 2", "protocol": "as §1"}, "[30]": {"target": "T14, asyn_113-127_126A", "assay": "Ala-scan peptide ELISA, row A, run 2", "protocol": "as §1"}, "[31]": {"target": "T15, asyn_113-127_120A", "assay": "Ala-scan peptide ELISA, row A, run 2", "protocol": "as §1"}, "[32]": {"target": "T16, asyn_113-127_125A", "assay": "Ala-scan peptide ELISA, row A, run 2", "protocol": "as §1"}, "[33]": {"target": "T17, asyn_113-127_115A", "assay": "Ala-scan peptide ELISA, row A, run 2", "protocol": "as §1"}, "[34]": {"target": "T18, asyn_113-127_127A", "assay": "Ala-scan peptide ELISA, row A, run 2", "protocol": "as §1"}, "[35]": {"target": "T16, asyn_113-127_125A", "assay": "Ala-scan peptide ELISA, row G, run 2", "protocol": "as §1"}, "[36]": {"target": "T18, asyn_113-127_127A", "assay": "Ala-scan peptide ELISA, row G, run 2", "protocol": "as §1"}},
  "note": "No end group written: not given here. *: point of attachment. Biotin = O=C1N[C@H]2[C@H](CS[C@H]2CCCCC(=O)*)N1",
  "data": [
    {"binder": "B1", "values": [
      {"measurement": "A450", "setting": "[1]", "value": 0.05, "unit": "OD"},
      {"measurement": "A450", "setting": "[2]", "value": 0.145, "unit": "OD"},
      {"measurement": "A450", "setting": "[3]", "value": 0.044, "unit": "OD"},
      {"measurement": "A450", "setting": "[4]", "value": 0.149, "unit": "OD"},
      {"measurement": "A450", "setting": "[5]", "value": 0.153, "unit": "OD"},
      {"measurement": "A450", "setting": "[6]", "value": 0.169, "unit": "OD"},
      {"measurement": "A450", "setting": "[7]", "value": 0.174, "unit": "OD"},
      {"measurement": "A450", "setting": "[8]", "value": 0.05, "unit": "OD"},
      {"measurement": "A450", "setting": "[9]", "value": 0.243, "unit": "OD"},
      {"measurement": "A450", "setting": "[10]", "value": 0.172, "unit": "OD"},
      {"measurement": "A450", "setting": "[11]", "value": 0.151, "unit": "OD"},
      {"measurement": "A450", "setting": "[12]", "value": 0.153, "unit": "OD"},
      {"measurement": "A450", "setting": "[13]", "value": 0.171, "unit": "OD"},
      {"measurement": "A450", "setting": "[14]", "value": 0.149, "unit": "OD"},
      {"measurement": "A450", "setting": "[15]", "value": 0.132, "unit": "OD"},
      {"measurement": "A450", "setting": "[16]", "value": 0.044, "unit": "OD"},
      {"measurement": "A450", "setting": "[17]", "value": 0.089, "unit": "OD"},
      {"measurement": "A450", "setting": "[18]", "value": 0.144, "unit": "OD"},
      {"measurement": "A450", "setting": "[19]", "value": 0.06, "unit": "OD"},
      {"measurement": "A450", "setting": "[20]", "value": 0.396, "unit": "OD"},
      {"measurement": "A450", "setting": "[21]", "value": 0.069, "unit": "OD"},
      {"measurement": "A450", "setting": "[22]", "value": 0.374, "unit": "OD"},
      {"measurement": "A450", "setting": "[23]", "value": 0.391, "unit": "OD"},
      {"measurement": "A450", "setting": "[24]", "value": 0.441, "unit": "OD"},
      {"measurement": "A450", "setting": "[25]", "value": 0.08, "unit": "OD"},
      {"measurement": "A450", "setting": "[26]", "value": 0.907, "unit": "OD"},
      {"measurement": "A450", "setting": "[27]", "value": 0.418, "unit": "OD"},
      {"measurement": "A450", "setting": "[28]", "value": 0.401, "unit": "OD"},
      {"measurement": "A450", "setting": "[29]", "value": 0.441, "unit": "OD"},
      {"measurement": "A450", "setting": "[30]", "value": 0.469, "unit": "OD"},
      {"measurement": "A450", "setting": "[31]", "value": 0.314, "unit": "OD"},
      {"measurement": "A450", "setting": "[32]", "value": 0.078, "unit": "OD"},
      {"measurement": "A450", "setting": "[33]", "value": 0.405, "unit": "OD"},
      {"measurement": "A450", "setting": "[34]", "value": 0.504, "unit": "OD"},
      {"measurement": "A450", "setting": "[35]", "value": 0.049, "unit": "OD"},
      {"measurement": "A450", "setting": "[36]", "value": 0.092, "unit": "OD"}
    ]}
  ]
}
